Reference: patent publication US20250262210A1 (TRUSTEES OF COLUMBIA UNIVERSITY IN THE CITY OF NEW YORK, published 2025)
Changes are numbered by the printed parent chain. One block for each binder: values may come before it.

Legend:
[1] = target: T1, LZTR1 R810W-FLAG (human, UniProt Q8N653 1-840); experiment: IP/MS, LZTR1 R810W-FLAG, U87
T1 construct: Stably expressed in U87 cells by lentivirus; also called LZTR1-FLAG-R810W; LZTR1 RW; not shown: FLAG tag
T1 sequence (looked up): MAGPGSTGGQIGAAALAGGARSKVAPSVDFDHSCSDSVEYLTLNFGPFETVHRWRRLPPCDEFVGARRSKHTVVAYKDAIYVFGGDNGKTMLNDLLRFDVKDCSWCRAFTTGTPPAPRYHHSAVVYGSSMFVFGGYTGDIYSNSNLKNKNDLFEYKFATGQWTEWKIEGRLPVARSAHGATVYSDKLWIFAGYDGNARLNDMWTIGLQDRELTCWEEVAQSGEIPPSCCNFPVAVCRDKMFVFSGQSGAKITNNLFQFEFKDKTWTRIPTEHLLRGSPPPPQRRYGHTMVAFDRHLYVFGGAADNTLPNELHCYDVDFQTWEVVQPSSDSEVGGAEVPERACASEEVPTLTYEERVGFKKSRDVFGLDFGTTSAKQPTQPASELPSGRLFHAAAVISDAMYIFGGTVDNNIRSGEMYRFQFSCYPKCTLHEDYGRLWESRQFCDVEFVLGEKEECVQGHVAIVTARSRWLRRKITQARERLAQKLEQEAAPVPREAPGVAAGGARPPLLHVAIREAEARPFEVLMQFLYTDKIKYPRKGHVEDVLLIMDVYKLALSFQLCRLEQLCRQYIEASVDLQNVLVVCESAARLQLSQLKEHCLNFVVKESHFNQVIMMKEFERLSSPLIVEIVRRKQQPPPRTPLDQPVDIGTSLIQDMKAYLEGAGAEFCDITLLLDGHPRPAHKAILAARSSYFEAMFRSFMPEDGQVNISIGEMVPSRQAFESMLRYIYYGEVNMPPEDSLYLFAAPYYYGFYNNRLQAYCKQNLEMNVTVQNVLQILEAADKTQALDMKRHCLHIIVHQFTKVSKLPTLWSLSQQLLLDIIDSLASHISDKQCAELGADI
Outline: (§1)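 Extracted peptides in 3% acetonitrile/0.1% formic acid ran on a 50 cm C18 column into an Orbitrap Fusion, with MaxQuant identification and spectral counting.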

[2] = target: T2, LZTR1-FLAG (human, UniProt Q8N653 1-840); experiment: IP/MS, LZTR1 wild type-FLAG, U87
T2 construct: Expressed in HEK 293T, HeLa or U87 cells; used as cell lysate; also called LZTR1 wild type-FLAG; LZTR1 WT; not shown: FLAG tag at the C-terminus
T2 sequence (looked up): T1 sequence (looked up) with W810R
Outline: as §1

B1: MCMBP (other, human, UniProt Q9BTE3 1-642, looked up)
chain: MPCGEDWLSHPLGIVQGFFAQNGVNPDWEKKVIEYFKEKLKENNAPKWVPSLNEVPLHYLKPNSFVKFRCMIQDMFDPEFYMGVYETVNQNTKAHVLHFGKYRDVAECGPQQELDLNSPRNTTLERQTFYCVPVPGESTWVKEAYVNANQARVSPSTSYTPSRHKRSYEDDDDMDLQPNKQKDQHAGARQAGSVGGLQWCGEPKRLETEASTGQQLNSLNLSSPFDLNFPLPGEKGPACLVKVYEDWDCFKVNDILELYGILSVDPVLSILNNDERDASALLDPMECTDTAEEQRVHSPPASLVPRIHVILAQKLQHINPLLPACLNKEESKTCKFVSSFMSELSPVRAELLGFLTHALLGDSLAAEYLILHLISTVYTRRDVLPLGKFTVNLSGCPRNSTFTEHLYRIIQHLVPASFRLQMTIENMNHLKFIPHKDYTANRLVSGLLQLPSNTSLVIDETLLEQGQLDTPGVHNVTALSNLITWQKVDYDFSYHQMEFPCNINVFITSEGRSLLPADCQIHLQPQLIPPNMEEYMNSLLSAVLPSVLNKFRIYLTLLRFLEYSISDEITKAVEDDFVEMRKNDPQSITADDLHQLLVVARCLSLSAGQTTLSRERWLRAKQLESLRRTRLQQQKCVNGNEL
binding result [1]: binds
binding result [2]: binds

B2: PNPLA2 (other, human, UniProt Q96AD5 1-504, looked up)
chain: MFPREKTWNISFAGCGFLGVYYVGVASCLREHAPFLVANATHIYGASAGALTATALVTGVCLGEAGAKFIEVSKEARKRFLGPLHPSFNLVKIIRSFLLKVLPADSHEHASGRLGISLTRVSDGENVIISHFNSKDELIQANVCSGFIPVYCGLIPPSLQGVRYVDGGISDNLPLYELKNTITVSPFSGESDICPQDSSTNIHELRVTNTSIQFNLRNLYRLSKALFPPEPLVLREMCKQGYRDGLRFLQRNGLLNRPNPLLALPPARPHGPEDKDQAVESAQAEDYSQLPGEDHILEHLPARLNEALLEACVEPTDLLTTLSNMLPVRLATAMMVPYTLPLESALSFTIRLLEWLPDVPEDIRWMKEQTGSICQYLVMRAKRKLGRHLPSRLPEQVELRRVQSLPSVPLSCAAYREALPGWMRNNLSLGDALAKWEECQRQLLLGLFCTNVAFPPEALRMRAPADPAPAPADPASPQHQLAGPAPLLSTPAPEARPVIGALGL
binding result [1]: binds
binding result [2]: binds

B3: PAFAH1B1 (other, human, UniProt P43034 1-410, looked up)
chain: MVLSQRQRDELNRAIADYLRSNGYEEAYSVFKKEAELDVNEELDKKYAGLLEKKWTSVIRLQKKVMELESKLNEAKEEFTSGGPLGQKRDPKEWIPRPPEKYALSGHRSPVTRVIFHPVFSVMVSASEDATIKVWDYETGDFERTLKGHTDSVQDISFDHSGKLLASCSADMTIKLWDFQGFECIRTMHGHDHNVSSVAIMPNGDHIVSASRDKTIKMWEVQTGYCVKTFTGHREWVRMVRPNQDGTLIASCSNDQTVRVWVVATKECKAELREHEHVVECISWAPESSYSSISEATGSETKKSGKPGPFLLSGSRDKTIKMWDVSTGMCLMTLVGHDNWVRGVLFHSGGKFILSCADDKTLRVWDYKNKRCMKTLNAHEHFVTSLDFHKTAPYVVTGSVDQTVKVWECR
binding result [1]: binds
binding result [2]: binds

Further lines, results first:

binding result [1]: binds
binding result [2]: binds
B4: NDC80 (other, human, UniProt O14777 1-642, looked up)
chain: MKRSSVSSGGAGRLSMQELRSQDVNKQGLYTPQTKEKPTFGKLSINKPTSERKVSLFGKRTSGHGSRNSQLGIFSSSEKIKDPRPLNDKAFIQQCIRQLCEFLTENGYAHNVSMKSLQAPSVKDFLKIFTFLYGFLCPSYELPDTKFEEEVPRIFKDLGYPFALSKSSMYTVGAPHTWPHIVAALVWLIDCIKIHTAMKESSPLFDDGQPWGEETEDGIMHNKLFLDYTIKCYESFMSGADSFDEMNAELQSKLKDLFNVDAFKLESLEAKNRALNEQIARLEQEREKEPNRLESLRKLKASLQGDVQKYQAYMSNLESHSAILDQKLNGLNEEIARVELECETIKQENTRLQNIIDNQKYSVADIERINHERNELQQTINKLTKDLEAEQQKLWNEELKYARGKEAIETQLAEYHKLARKLKLIPKGAENSKGYDFEIKFNPEAGANCLVKYRAQVYVPLKELLNETEEEINKALNKKMGLEDTLEQLNAMITESKRSVRTLKEEVQKLDDLYQQKIKEAEEEDEKCASELESLEKHKHLLESTVNQGLSEAMNELDAVQREYQLVVQTTTEERRKVGNNLQRLLEMVATHVGSVEKHLEEQIAKVDREYEECMSEDLSENIKEIRDKYEKKATLIKSSEE

binding result [1]: binds
binding result [2]: binds
B5: NGLY1 (other, human, UniProt Q96IV0 2-654, looked up)
chain: AAAALGSSSGSASPAVAELCQNTPETFLEASKLLLTYADNILRNPNDEKYRSIRIGNTAFSTRLLPVRGAVECLFEMGFEEGETHLIFPKKASVEQLQKIRDLIAIERSSRLDGSNKSHKVKSSQQPAASTQLPTTPSSNPSGLNQHTRNRQGQSSDPPSASTVAADSAILEVLQSNIQHVLVYENPALQEKALACIPVQELKRKSQEKLSRARKLDKGINISDEDFLLLELLHWFKEEFFHWVNNVLCSKCGGQTRSRDRSLLPSDDELKWGAKEVEDHYCDACQFSNRFPRYNNPEKLLETRCGRCGEWANCFTLCCRAVGFEARYVWDYTDHVWTEVYSPSQQRWLHCDACEDVCDKPLLYEIGWGKKLSYVIAFSKDEVVDVTWRYSCKHEEVIARRTKVKEALLRDTINGLNKQRQLFLSENRRKELLQRIIVELVEFISPKTPKPGELGGRISGSVAWRVARGEMGLQRKETLFIPCENEKISKQLHLCYNIVKDRYVRVSNNNQTISGWENGVWKMESIFRKVETDWHMVYLARKEGSSFAYISWKFECGSVGLKVDSISIRTSSQTFQTGTVEWKLRSDTAQVELTGDNSLHSYADFSGATEVILEAELSRGDGDVAWQHTQLFRQSLNDHEENCLEIIIKFSDL

binding result [1]: binds
binding result [2]: binds
B6: MELK (other, human, UniProt Q14680 1-651, looked up)
chain: MKDYDELLKYYELHETIGTGGFAKVKLACHILTGEMVAIKIMDKNTLGSDLPRIKTEIEALKNLRHQHICQLYHVLETANKIFMVLEYCPGGELFDYIISQDRLSEEETRVVFRQIVSAVAYVHSQGYAHRDLKPENLLFDEYHKLKLIDFGLCAKPKGNKDYHLQTCCGSLAYAAPELIQGKSYLGSEADVWSMGILLYVLMCGFLPFDDDNVMALYKKIMRGKYDVPKWLSPSSILLLQQMLQVDPKKRISMKNLLNHPWIMQDYNYPVEWQSKNPFIHLDDDCVTELSVHHRNNRQTMEDLISLWQYDHLTATYLLLLAKKARGKPVRLRLSSFSCGQASATPFTDIKSNNWSLEDVTASDKNYVAGLIDYDWCEDDLSTGAATPRTSQFTKYWTESNGVESKSLTPALCRTPANKLKNKENVYTPKSAVKNEEYFMFPEPKTPVNKNQHKREILTTPNRYTTPSKARNQCLKETPIKIPVNSTGTDKLMTGVISPERRCRSVELDLNQAHMEETPKRKGAKVFGSLERGLDKVITVLTRSKRKGSARDGPRRLKLHYNVTTTRLVNPDQLLNEIMSILPKKHVDFVQKGYTLKCQTQSDFGKVTMQFELEVCQLQKPDVVGIRRQRLKGDAWVYKRLVEDILSSCKV
